# Data taken from paper PMC4854876.
# Target: human hemoglobin (human) (UniProt P69905)
# Assay: SPR
# Chain of UniProt P69905 (P69905 whole entry, chain 1 of 2): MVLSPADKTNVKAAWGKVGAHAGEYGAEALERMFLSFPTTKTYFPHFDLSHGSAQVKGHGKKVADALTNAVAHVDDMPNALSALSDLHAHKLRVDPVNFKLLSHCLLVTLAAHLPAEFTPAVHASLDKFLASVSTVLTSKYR
# Chain of UniProt P69905 (P68871 whole entry, chain 2 of 2, further chain): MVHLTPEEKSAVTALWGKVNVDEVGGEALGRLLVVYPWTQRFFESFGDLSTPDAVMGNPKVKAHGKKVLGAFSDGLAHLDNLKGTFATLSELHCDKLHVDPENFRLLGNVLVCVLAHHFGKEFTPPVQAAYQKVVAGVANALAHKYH
substance,measurement,value
Spbhp-37 recombinant protein without the GST tag (natural protein),Kd,357 nM
